Where a chain is given by its changes, count along the chain named.
B1: SD22 monoclonal antibody (human IgG1) (antibody, V domains shown)
VH: QVQLVESGGGVVQPGRSLRLSCAASGFTFSGFGMHWVRQAPGKGLEWVALISYDGSDTYYSDSVKGRFTISRDNSKNTLYLQLKSLRPDDTAVYYCVGDRDYFGSGFFDHWGQGTLVTVSS
VL: DIQMTQSPSSLSASIGDRVTITCRASRHITNHLNWYQHKPGRAPKLLIYEASNLQAGVPSRFSGSGSGTDFTFTISSLQPEDFATYYCQQYDNLPPAFGGGTKVDIK
B2: SD4-X monoclonal antibody (human IgG1) (antibody, V domains shown)
VH: QVQLVESGGGVVQPGRSLRLSCAASGFTFSSYGMHWVRQAPGKGLEWVAVISYDGSNKYYADSVKGRFTISRDNSKNTLYLQMNSLRAEDTAVYYCAKDRDYYGSGFFDYWGQGTLVTVSS
VL: DIQMTQSPSSLSASVGDRVTITCQASQDISNHLNWYQEKPGKVPKLLIYEASNVETGVPSRFSGSGSGTDFTFTISSLQPEDIATYYCQQYDNLPYTFGQGTKLEIK
B3: SD12 monoclonal antibody (human IgG1) (antibody, V domains shown)
VH: EVQLLESGGGLVQPGGSLRLSCAASGFIFSSYAMSWVRQAPGKGLEWVSAISGSGGSTYYADSVKGRFTISRDNSKNTLYLQMNSLRDEDTAVYYCAKDRSYVSSGFFDDWGQGTLVTVSS
VL: B2 VL with H32Y, E38Q, K39R, V43A, Y49F, V54L, D92E, P95L
B4: SD4-S monoclonal antibody (human IgG1) (antibody, V domains shown)
VH: B2 VH with V12L, S31G, N57E, Y59N, A61G, M83I, A88T, T91R, Y103F
VL: DIQMTQSPSSLSASVGDRVTITCQASQDITKYLNWYQQKPGKAPKLLIFEASNLETGVPSRFSGSGSGTDFTFTISSLQPEDFATYYCQQYGDFPLTFGGGTKVEIK
B5: SD4 monoclonal antibody (human IgG1) (antibody, V domains shown)
VH: B2 VH with T28P, S31G, N57E, Y59N, A88V, F108Y
VL: DIQMTQSPSSLSASVGDRVTITCQASQHISNHLNWYQQKPGTAPTLLIYEASNLETGVPSRFSGSGSGTDFSFTISSLRPEDFATYYCQQYDNFPLTFGPGTTMDIK

Key:
[1] = target: T1, SFTSV Gn glycoprotein (G19-K452, C3 genotype) (SFTSV (severe fever with …)); assay: BLI
[2] = target: T1, SFTSV Gn glycoprotein (G19-K452, C3 …); assay: BLI; remark: listed apart in the source

Binder	Kd [1] [nM]	koff [2] [s⁻¹]
B1	0.205	4.01e-05
B2	1.11	0.000108
B3	2.37	0.000179
B4	0.196	2.9e-05
B5	–	1.18e-05

Source: PMC12282080 (2025)
